Experimental data taken from paper PMC8298264, “Function of cofactor Akirin2 in the regulation of gene expression in model human neutrophil-like HL60 cells” (Bioscience Reports, 2021).

B1: sp¦P61009¦SPCS3_HUMAN (protein, UniProt P61009 1-180, looked up)
Signal peptidase complex …: MNTVLSRANSLFAFSLSVMAALTFGCFITTAFKDRSVPVRLHVSRIMLKNVEDFTGPRERSDLGFITFDITADLENIFDWNVKQLFLYLSAEYSTKNNALNQVVLWDKIVLRGDNPKLLLKDMKTKYFFFDDGNGLKGNRNVTLTLSWNVVPNAGILPLVTGSGHVSVPFPDTYEITKSY
B2: sp¦O96008¦TOM40_HUMAN (protein, UniProt O96008 1-361, looked up)
Mitochondrial import receptor …: MGNVLAASSPPAGPPPPPAPALVGLPPPPPSPPGFTLPPLGGSLGAGTSTSRSSERTPGAATASASGAAEDGACGCLPNPGTFEECHRKCKELFPIQMEGVKLTVNKGLSNHFQVNHTVALSTIGESNYHFGVTYVGTKQLSPTEAFPVLVGDMDNSGSLNAQVIHQLGPGLRSKMAIQTQQSKFVNWQVDGEYRGSDFTAAVTLGNPDVLVGSGILVAHYLQSITPCLALGGELVYHRRPGEEGTVMSLAGKYTLNNWLATVTLGQAGMHATYYHKASDQLQVGVEFEASTRMQDTSVSFGYQLDLPKANLLFKGSVDSNWIVGATLEKKLPPLPLTLALGAFLNHRKNKFQCGFGLTIG
B3: sp¦P54577¦SYYC_HUMAN (protein, UniProt P54577 1-528, looked up)
Tyrosine--tRNA ligase, …: MGDAPSPEEKLHLITRNLQEVLGEEKLKEILKERELKIYWGTATTGKPHVAYFVPMSKIADFLKAGCEVTILFADLHAYLDNMKAPWELLELRVSYYENVIKAMLESIGVPLEKLKFIKGTDYQLSKEYTLDVYRLSSVVTQHDSKKAGAEVVKQVEHPLLSGLLYPGLQALDEEYLKVDAQFGGIDQRKIFTFAEKYLPALGYSKRVHLMNPMVPGLTGSKMSSSEEESKIDLLDRKEDVKKKLKKAFCEPGNVENNGVLSFIKHVLFPLKSEFVILRDEKWGGNKTYTAYVDLEKDFAAEVVHPGDLKNSVEVALNKLLDPIREKFNTPALKKLASAAYPDPSKQKPMAKGPAKNSEPEEVIPSRLDIRVGKIITVEKHPDADSLYVEKIDVGEAEPRTVVSGLVQFVPKEELQDRLVVVLCNLKPQKMRGVESQGMLLCASIEGINRQVEPLDPPAGSAPGEHVFVKGYEKGQPDEELKPKKKVFEKLQADFKISEECIAQWKQTNFMTKLGSISCKSLKGGNIS
B4: sp¦Q9HDC9¦APMAP_HUMAN (protein, UniProt Q9HDC9 2-416, looked up)
Adipocyte plasma …: SEADGLRQRRPLRPQVVTDDDGQAPEAKDGSSFSGRVFRVTFLMLAVSLTVPLLGAMMLLESPIDPQPLSFKEPPLLLGVLHPNTKLRQAERLFENQLVGPESIAHIGDVMFTGTADGRVVKLENGEIETIARFGSGPCKTRDDEPVCGRPLGIRAGPNGTLFVADAYKGLFEVNPWKREVKLLLSSETPIEGKNMSFVNDLTVTQDGRKIYFTDSSSKWQRRDYLLLVMEGTDDGRLLEYDTVTREVKVLLDQLRFPNGVQLSPAEDFVLVAETTMARIRRVYVSGLMKGGADLFVENMPGFPDNIRPSSSGGYWVGMSTIRPNPGFSMLDFLSERPWIKRMIFKLFSQETVMKFVPRYSLVLELSDSGAFRRSLHDPDGLVATYISEVHEHDGHLYLGSFRSPFLCRLSLQAV
B5: sp¦Q8TCS8¦PNPT1_HUMAN (protein, UniProt Q8TCS8 46-783, looked up)
Polyribonucleotide …: AVAVDLGNRKLEISSGKLARFADGSAVVQSGDTAVMVTAVSKTKPSPSQFMPLVVDYRQKAAAAGRIPTNYLRREIGTSDKEILTSRIIDRSIRPLFPAGYFYDTQVLCNLLAVDGVNEPDVLAINGASVALSLSDIPWNGPVGAVRIGIIDGEYVVNPTRKEMSSSTLNLVVAGAPKSQIVMLEASAENILQQDFCHAIKVGVKYTQQIIQGIQQLVKETGVTKRTPQKLFTPSPEIVKYTHKLAMERLYAVFTDYEHDKVSRDEAVNKIRLDTEEQLKEKFPEADPYEIIESFNVVAKEVFRSIVLNEYKRCDGRDLTSLRNVSCEVDMFKTLHGSALFQRGQTQVLCTVTFDSLESGIKSDQVITAINGIKDKNFMLHYEFPPYATNEIGKVTGLNRRELGHGALAEKALYPVIPRDFPFTIRVTSEVLESNGSSSMASACGGSLALMDSGVPISSAVAGVAIGLVTKTDPEKGEIEDYRLLTDILGIEDYNGDMDFKIAGTNKGITALQADIKLPGIPIKIVMEAIQQASVAKKEILQIMNKTISKPRASRKENGPVVETVQVPLSKRAKFVGPGGYNLKKLQAETGVTISQVDEETFSVFAPTPSAMHEARDFITEICKDDQEQQLEFGAVYTATITEIRDTGVMVKLYPNMTAVLLHNTQLDQRKIKHPTALGLEVGQEIQVKYFGRDPADGRMRLSRKVLQSPATTVVRTLNDRSSIVMGEPISQSSSNSQ
B6: sp¦Q15654¦TRIP6_HUMAN (protein, UniProt Q15654 1-476, looked up)
Thyroid receptor-interacting …: MSGPTWLPPKQPEPARAPQGRAIPRGTPGPPPAHGAALQPHPRVNFCPLPSEQCYQAPGGPEDRGPAWVGSHGVLQHTQGLPADRGGLRPGSLDAEIDLLSSTLAELNGGRGHASRRPDRQAYEPPPPPAYRTGSLKPNPASPLPASPYGGPTPASYTTASTPAGPAFPVQVKVAQPVRGCGPPRRGASQASGPLPGPHFPLPGRGEVWGPGYRSQREPGPGAKEEAAGVSGPAGRGRGGEHGPQVPLSQPPEDELDRLTKKLVHDMNHPPSGEYFGQCGGCGEDVVGDGAGVVALDRVFHVGCFVCSTCRAQLRGQHFYAVERRAYCEGCYVATLEKCATCSQPILDRILRAMGKAYHPGCFTCVVCHRGLDGIPFTVDATSQIHCIEDFHRKFAPRCSVCGGAIMPEPGQEETVRIVALDRSFHIGCYKCEECGLLLSSEGECQGCYPLDGHILCKACSAWRIQELSATVTTDC
B7: sp¦Q9Y5Y2¦NUBP2_HUMAN (protein, UniProt Q9Y5Y2 1-271, looked up)
Cytosolic Fe-S cluster …: MEAAAEPGNLAGVRHIILVLSGKGGVGKSTISTELALALRHAGKKVGILDVDLCGPSIPRMLGAQGRAVHQCDRGWAPVFLDREQSISLMSVGFLLEKPDEAVVWRGPKKNALIKQFVSDVAWGELDYLVVDTPPGTSDEHMATIEALRPYQPLGALVVTTPQAVSVGDVRRELTFCRKTGLRVMGIVENMSGFTCPHCTECTSVFSRGGGEELAQLAGVPFLGSVPLDPALMRTLEEGHDFIQEFPGSPAFAALTSIAQKILDATPACLP
B8: sp¦P40926¦MDHM_HUMAN (protein, UniProt P40926 25-338, looked up)
Malate dehydrogenase, …: AKVAVLGASGGIGQPLSLLLKNSPLVSRLTLYDIAHTPGVAADLSHIETKAAVKGYLGPEQLPDCLKGCDVVVIPAGVPRKPGMTRDDLFNTNATIVATLTAACAQHCPEAMICVIANPVNSTIPITAEVFKKHGVYNPNKIFGVTTLDIVRANTFVAELKGLDPARVNVPVIGGHAGKTIIPLISQCTPKVDFPQDQLTALTGRIQEAGTEVVKAKAGAGSATLSMAYAGARFVFSLVDAMNGKEGVVECSFVKSQETECTYFSTPLLLGKKGIEKNLGIGKVSSFEEKMISDAIPELKASIKKGEDFVKTLK
B9: sp¦P43034¦LIS1_HUMAN (protein, UniProt P43034 1-410, looked up)
Platelet-activating factor …: MVLSQRQRDELNRAIADYLRSNGYEEAYSVFKKEAELDVNEELDKKYAGLLEKKWTSVIRLQKKVMELESKLNEAKEEFTSGGPLGQKRDPKEWIPRPPEKYALSGHRSPVTRVIFHPVFSVMVSASEDATIKVWDYETGDFERTLKGHTDSVQDISFDHSGKLLASCSADMTIKLWDFQGFECIRTMHGHDHNVSSVAIMPNGDHIVSASRDKTIKMWEVQTGYCVKTFTGHREWVRMVRPNQDGTLIASCSNDQTVRVWVVATKECKAELREHEHVVECISWAPESSYSSISEATGSETKKSGKPGPFLLSGSRDKTIKMWDVSTGMCLMTLVGHDNWVRGVLFHSGGKFILSCADDKTLRVWDYKNKRCMKTLNAHEHFVTSLDFHKTAPYVVTGSVDQTVKVWECR

tested on: human HL60 cells; test: SWATH-MS proteomics, differential protein representation, akirin2 KO vs WT HL60 cells; format: cell-based; conditions: SWATH-MS, akirin2 KO vs WT HL60 cells, under-represented in KO
In short: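 Three biological replicates per genotype; 150 µg protein FASP/trypsin digested; IDA library (3 µg digest); SWATH variable windows, 5 µg/sample, 3.6 s cycle; gradient 5–30% B 120 min then 30–60% B 15 min; 1% global FDR; TAS normalization.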

Molecule | Fold Change | Log (Fold Change)
B1 | 0.6925 | -0.1596
B2 | 0.6912 | -0.1604
B3 | 0.6907 | -0.1607
B4 | 0.6899 | -0.1612
B5 | 0.6886 | -0.162

same assay, conditions: akirin2 KO vs WT HL60 cells; sheet "Under-represented in KO"

Molecule | Fold Change | Log (Fold Change)
B6 | 0.6873 | -0.1629
B7 | 0.6881 | -0.1623
B8 | 0.6852 | -0.1642
B9 | 0.6845 | -0.1646
